Results on two molecules are retold here after patent publication US10196445 (Bristol-Myers Squibb, dated 2019).

This experiment deals with CTLA4 CD3 zeta on the 58 α-β-CTLA4 CD3 zeta expressing cell line (human). Nature of the experiment: cell-based or functional assay.
Chain of CTLA4 CD3 zeta on the 58 α-β-CTLA4 CD3 zeta expressing cell line (human) (P16410 36-161): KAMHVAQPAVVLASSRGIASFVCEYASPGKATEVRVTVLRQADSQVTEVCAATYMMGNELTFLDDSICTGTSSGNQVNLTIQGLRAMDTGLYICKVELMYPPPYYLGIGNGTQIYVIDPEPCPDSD

B1: ipilimumab (antibody, human IgG1, kappa, V domains shown)
VH: QVQLVESGGGVVQPGRSLRLSCAASGFTFSSYTMHWVRQAPGKGLEWVTFISYDGNNKYYADSVKGRFTISRDNSKNTLYLQMNSLRAEDTAIYYCARTGWLGPFDYWGQGTLVTVSS
VL: not shown
As to B1, the “EC50 of NK92 cell-mediated specific lysis (calcein release) of 58 α-β-CTLA4 CD3 zeta cells” value is 0.13 ng/mL.

B2: non-fucosylated ipilimumab (antibody, human IgG1, kappa, V domains shown)
VH: B1 VH
VL: not shown
modifications: non-fucosylated (no fucose on the Asn297-linked oligosaccharide)
For B2, the “EC50 of NK92 cell-mediated specific lysis (calcein release) of 58 α-β-CTLA4 CD3 zeta cells” value is 0.0056 ng/mL.
